Source: patent US11707511B2, “Vaccine compositions and methods of using the same” (The Board of Supervisors of Louisiana State University and …, priority 2017, dated 2023)

System: C. auris AR-0386
Assay: Passive transfer of mAbs or two mAbs in combination in A/J mouse model of invasive C. auris infection
Format: in vivo, Candida auris
Method: A. Complement protein C5-defecient A/J mice were treated with one of the five mAb or with DPBS as a vehicle control. The following day, mice were challenged with 1×10^8 C. auris cells/100 ul DPBS dose per mouse. […] B. Fungal burdens in the kidneys (top), heard (center), and brain (bottom).
Identified protective mAbs were obtained by use of standard hybridoma technique and purified by use of protein A/G. A/J mice were given an i.p. dose of either single mAb or two mAbs in combination 24 hours before hematogensous challenge with a lethal dose (2×108) of C. auris AR-0386 live cells. Mice received either 9G2F5 alone or 6H1G8 alone or 9F2G5 and 3H7E3 in combination had 40% survival rate respectively, with prolonged survival as compared to control animals that received DPBS buffer control.
Evaluation and validation of a panel of peptide-specific monoclonal antibodies (mAbs) as a passive immunization strategy protect against invasive C. auris infection in established A/J mouse model of human disease.
The monoclonal antibodies used in this experiment were: • 6H1G8 (IgG2b), α-Hwp1 (Hyphal wall protein) • 3E2G2 (IgG2b), α-Fba (Fructose bisphosphate aldolase) • 10E7E2 (IgG1), α-GPV-P3 (General peptide vaccine 3 from Phosphoglycerate kinase) • 9F2G5 (IgG2a), α-Pgk1 (Phosphoglycerate kinase) • 3H7E3 (IgG1), α-Met6 (Methyltetrahydropteroyltriglutamate)

B1: 10E7E2: IgG1 mAb of hybridoma 10E7E2, specific for GPV-P3; VH SEQ ID NO: 72, VL SEQ ID NO: 74 (antibody, V domains shown)
VH: QVQLKQSGPGLVQPSQSLSITCTVSGFSLTSYGVHWVRQSPGKGLEWLGVIWSGGTTDYNAAFISRLSISKDNSKSQVFFKMNSLQANDTAIYYCARGGHRGFAYWGQGTLVTVSA
VL: DIVMTQSHKFMSTSVGDRVSITCKASQDVGTAVAWYQQKPGQSPKLLIYWASTRHTGVPDRFTGSGSGTDFTLTISNVQSEDLADYFCQQYSSYPLTFGAGTKLELK
fungal burdens in targeted organs (A/J mouse model, in words): lower fungal loads | protection against C. auris invasive infection (A/J mouse model, in words): protect against C. auris invasive infection | survival (FIG. 15A, A/J mice, 1×10^8 C. auris cells, experiment terminated 40 days post challenge): 25% | Protection against C. auris (Table 19, A/J strain mice): 80-100% | Protection against C. auris (grade word) (Table 19, A/J strain mice): High
